What all share (test): receptor inhibition assay at 10 µM Compound A, ratio relative to a control compound
The target of one assay is Muscarine M1 receptor. Here is the method: (§1) The inhibitory action of Compound A against various receptors listed in Table 2 was examined to evaluate the specificity of Compound A. The activities of the receptors were measured by using an appropriate assay system according to the property of the respective receptors. Further, the evaluation results of Compound A were calculated as an inhibition ratio at a final concentration of 10 μM. Here, the inhibition ratio was calculated based on a value of a control compound in each assay. As is apparent from the results shown in Table 2, it was confirmed that Compound A is specific to an MCH receptor. Incidentally, examination was carried out with regard to 173 kinds of physiologically functional proteins including the receptors shown in Table 2, however, the affinity thereof could not be found other than the MCH receptors, and only major receptors are shown in Table 2.

The target of a further assay is Glutamate AMPA receptor. As to the method:
as §1

The next assay has as its target Histamine H3 receptor. Here is the method: as §1
The target of another assay is Neuropeptide Y1 receptor. As to the method: as §1

B1: Compound A (peptide)
peptide: RCMXRVYXC
modifications: N-terminal acetyl on Arg 1 (printed Arg-C(=O)CH3); C-terminal amide on Cys 9 (printed H2N-Cys); X at positions 4 and 8 = Ava (5-aminovaleric acid); the two Cys residues (2 and 9) are bound to each other through a -SS- bond
notes: Synthetic cyclic peptide with two non-natural Ava residues; The direction of the printed formula is interpreted; also called MCH1R antagonist; H2N-Cys-Ava-Tyr-Val-Arg-Ava-Met-Cys-Arg-C(=O)CH3
Turning to B1, the Inhibition ratio was 0 with Muscarine M1 receptor, 8 with Glutamate AMPA receptor, -6 in the assay with Histamine H3 receptor and 17 with Neuropeptide Y1 receptor.

The values above are taken from patent US20100184648A1 (published 2010).
